Tested on: peptide library, one residue held at a place counted from the S/T acceptor
Assay: relative phosphorylation of the sub-library (ratio to the mean residue at this position); human; higher = residue favoured
Method in brief: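 Spots on streptavidin membranes were phosphorimaged and quantified by densitometry to measure phosphorylation of biotinylated degenerate peptide sub-libraries by purified recombinant kinases, human or orthologue constructs. The reactions ran in 384-well plates for 90 min under kinase-specific conditions, with peptides at 50 μM and 50 μM ATP spiked with γ-32P-ATP. Relative sub-library phosphorylation is the ratio to the mean residue at that position.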

PKN2, construct: aa501-984 (from UniProt Q16513)
relative phosphorylation
Settings	at +1	at +2	at +3	at +4	at -1	at -2	at -3	at -4	at -5
A fixed	0.532	0.768	0.837	0.925	0.905	1.1	0.867	1.11	0.963
D fixed	0.318	0.322	0.543	0.614	0.962	0.35	0.321	0.59	0.503
E fixed	0.293	0.32	0.545	0.609	0.719	0.357	0.347	0.669	0.522
F fixed	2.82	0.467	0.753	0.535	0.602	0.671	0.464	0.749	0.806
G fixed	0.43	0.554	0.938	1.17	1.32	0.949	0.823	1.19	1.04
H fixed	0.805	1.63	1.22	1.25	1.16	1.43	1.49	1.16	0.946
I fixed	1.34	0.836	0.888	0.877	0.514	0.569	0.514	0.861	1.45
K fixed	1.33	2.49	1.85	1.94	1.66	2.17	2.37	1.82	1.43
L fixed	1.25	0.927	0.946	0.785	0.833	0.571	0.61	0.804	1.34
M fixed	1.84	0.788	0.839	0.804	0.825	0.852	0.643	0.928	0.723
N fixed	0.75	1.02	0.861	0.994	1.37	1.13	0.736	0.938	0.78
P fixed	0.252	0.471	0.557	1.2	1.06	0.538	0.681	0.831	0.99
Q fixed	0.82	0.758	0.998	0.998	1.04	1.11	0.898	1.09	0.89
R fixed	1.44	3.42	2.22	1.7	1.71	2.83	4.31	1.59	1.84
V fixed	0.927	0.8	0.875	0.787	0.74	0.752	0.512	0.985	1.23
W fixed	0.855	0.536	0.979	0.987	0.775	0.801	0.661	0.871	0.723
Y fixed	0.997	0.885	1.15	0.825	0.811	0.82	0.742	0.809	0.824
pThr fixed	1.05	1.15	0.818	0.683	0.799	0.836	0.743	1.11	0.683
pTyr fixed	0.572	0.884	0.864	0.666	0.856	0.711	0.977	0.741	0.863

From the supplement of paper PMC9876800
